{"source": "the supplement of paper PMC10471632", "about": "“Protein engineering and iterative multimodule optimization for vitamin B6 production in Escherichia coli” (Nature Communications, 2023)", "parents": {"B1": {"name": "library; numbered along this chain (parent)", "chain": "MAELLLGVNIDHIATLRNARGTAYPDPVQAAFIAEQAGADGITVHLREDRRHITDRDVRILRQTLDTRMNLEMAVTEEMLAIAVETKPHFCCLVPEKRQEVTTEGGLDVAGQRDKMRDACKRLADAGIQVSLFIDADEEQIKAAAEVGAPFIEIHTGCYADAKTDAEQAQELARIAKAATFAASLGLKVNAGHGLTYHNVKAIAAIPEMHELNIGHAIIGRAVMTGLKDAVAEMKRLMLEARG"}}, "note": "± gives the standard deviation of the averaged measurements.", "data": [{"variants_of": "B1", "assay": "pyridoxine titer in culture supernatant of strain expressing the PdxJ variant; higher = more PN produced (higher in vivo pathway activity of the PdxJ variant)", "details": "host strain: E. coli LL006; 48 h; temperature: 37 °C; FM1.4", "procedure": "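Rosetta-designed single to quadruple mutants of E. coli PdxJ (PNP synthase) were expressed from pRSFDuet-1 in the engineered chassis E. coli LL006 (MG1655 ΔpdxH::pdxST, pta::Eme_pdxP). Strains were grown in 24 deep-well plates in 2 mL FM1.4 glycerol medium at 37 °C and 800 rpm for 48 h. Extracellular pyridoxine (PN) titer was quantified by HPLC with fluorescence detection; two biological replicates, with the WT pdxJ strain (LL137, about 0.5 mg/L) as control.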", "units": {"pyridoxine titer": "mg/L"}, "values": [{"variant": "MAELLLLVNIDHIATLRNARGTAYPDPVQAAFIAEQAGADGITVHLREDRRHITDRDVRILRQTLDTRMNLEMAVTEEMLAIAVETKPHFCCLVPEKRQEVTTEGGLDVAGQRDKMRDACKRLADAGIQVSLFIDADEEQIKAAAEVGAPFIEIHTGCYADAKTDAEQAQELARIAKAATFAASLGLKVNAGHGLTYHNVKAIAAIPEMHELNIGHAIIGRAVMTGLKDAVAEMKRLMLEARG", "note": "[G7L]", "pyridoxine titer": "0.9583 ± 0.0052"}, {"variant": "MAELLLLVNIDHIATLRNARGTAYPDPVQAAFIAEQAGADGITVHLREDRRHITDRDVRILRQTLDTRMNLEMAVTEEMLAIAVETKPHFCCLVPEKRQEVTTEGGLDVAGQRDKMRDACKRLADAGIQVSLFIDADEEQIKAAAEVGAPFIELHTGCYADAKTDAEQAQELARIAKAATFAASLGLKVNAGHGLTYHNVKAIAAIPEMHELNIGHAIIGRAVMTGLKDAVAEMKRLMLEARG", "note": "[G7L I154L]", "pyridoxine titer": "0.82 ± 0.68"}, {"variant": "MAELLLGVNLDHIATLRNRRGVTYPDPVQAAFIAEQAGADGITVHLREDRRHITDRDVRILRQTLDTRMNLEMAVTEEMLAIAVETKPHFCCLVPEKRQEVTTEGGLDVAGQRDKMRDACKRLADAGIQVSLFIDADEEQIKAAAEVGAPFIEIHTGCYADAKTDAEQAQELARIAKAATFAASLGLKVNAGHGLTYHNVKAIAAIPEMHELNIGHAIIGRAVMTGLKDAVAEMKRLMLEARG", "note": "[I10L A19R T22V A23T]", "pyridoxine titer": "0.561 ± 0.17"}, {"variant": "MAELLLMVNIDHIATLRNARGTAYPDPVQAAFIAEQAGADGITVHLREDRRHITDRDVRILRQTLDTRMNLEMAVTEEMLAIAVETKPHFCCLVPEKRQEVTTEGGLDVAGQRDKMRDACKRLADAGIQVSLFIDADEEQIKAAAEVGAPFIEIHTGCYADAKTDAEQAQELARIAKAATFAASLGLKVNAGHGLCYHNVKAIAAIPEMHEINIGHAIIGRAVMTGLKDAVAEMKRLMLEARG", "note": "[G7M T196C L212I]", "pyridoxine titer": "6.32 ± 1.8"}, {"variant": "MAELLLGVNLDHIATLRNARGTTYPDPVQAAFIAEQAGADGITVHLREDRRHITDRDVRILRQTLDTRMNLEMAVTEEMLAIAVETKPHFCCLVPEKRQIVTTEGGLDVAGQRDKMRDACKRLADAGIQVSLFIDADEEQIKAAAEVGAPFIEIHTGCYADAKTDAEQAQELARIAKAATFAASLGLKVNAGHGLTYHNVKAIAAIPEMHELNIGHAIIGRAVMTGLKDAVAEMKRLMLEARG", "note": "[I10L A23T E100I]", "pyridoxine titer": "4.81 ± 0.11"}, {"variant": "MAELLLWVNLDHIATLRNARGTAYPDPVQAAFIAEQAGADGITVHLREDRRHITDRDVRILRQTLDTRMNLEMAVTEEMLAIAVETKPHFCCLVPEKRQEVTTEGGLDVAGQRDKMRDACKRLADAGIQVSLFIDADEEQIKAAAEVGAPFIEIHTGCYADAKTDAEQAQELARIAKAATFAASLGLKVNAGHGLTYHNVKAIAAIPEMHELNIGHALIGRAVMTGLKDAVAEMKRLMLEARG", "note": "[G7W I10L I218L]", "pyridoxine titer": "0.2 ± 0.014"}, {"variant": "MAELLLGVNLDHIATLRNARGTTYPDPVQAAFIAEQAGADGITVHLREDRRHITDRDVRILRQTLDTRMNLEMAVTEEMLAIAVETKPHFCCLVPEKRQEVTLEGGLDVAGQRDKMRDACKRLADAGIQVSLFIDADEEQIKAAAEVGAPFIEIHTGCYADAKTDAEQAQELARIAKAATFAASLGLKVNAGHGLTYHNVKAIAAIPEMHELNIGHAIIGRAVMTGLKDAVAEMKRLMLEARG", "note": "[I10L A23T T103L]", "pyridoxine titer": 0.24}, {"variant": "MAELLLGVNLDHIATLRNARGTTYPDPVQAAFIAEQAGADGITVHLREDRRHITDRDVRILRQTLDTRMNLEMAVTEEMLAIAVETKPHFCCLVPEKRQEVTTTGGLDVAGQRDKMRDACKRLADAGIQVSLFIDADEEQIKAAAEVGAPFIEIHTGCYADAKTDAEQAQELARIAKAATFAASLGLKVNAGHQLTYHNVKAIAAIPEMHELNIGHAIIGRAVMTGLKDAVAEMKRLMLEARG", "note": "[I10L A23T E104T G194Q]", "pyridoxine titer": "0.545 ± 0.21"}, {"variant": "MAELLLLVNIDHIATLRNARGTAYPDPVQAAFIAEQAGADGITVHLREDRRHITDRDVRILRQTLDTRMNLEMAVTEEMLAIAVETKPHFCCLVPEKRQEVTLTGGLDVAGQRDKMRDACKRLADAGIQVSLFIDADEEQIKAAAEVGAPFIEIHTGCYADAKTDAEQAQELARIAKAATFAASLGLKVNAGHGLTYHNVKAIAAIPEMHELNIGHAIIGRAVMTGLKDAVAEMKRLMLEARG", "note": "[G7L T103L E104T]", "pyridoxine titer": "7.1 ± 0.35"}, {"variant": "MAELLLLVNIDHIATLRNARGTAYPDPVQAAFIAEQAGADGITVHLREDRRHITDRDVRILRQTLDTRMNLEMAVTEEMLAIAVETKPHFCCLVPEKRQEVTTEGGLDVAGQRDKMRDACKRLADAGIQVSLFIDADEEQIKAAAEVGAPFIEIHTGCYADAKTDAEQAQELARIAKAATFAASLGLKVNAGHGLTYHNVKAIAAIPEMHELIIGHAIIGRAVMTGLKDAVAEMKRLMLEARG", "note": "[G7L N213I]", "pyridoxine titer": "0.6 ± 0.11"}, {"variant": "MAELLLGVNLDHIATLRNCRGTAYPDPVQAAFIAEQAGADGITVHLREDRRHITDRDVRILRQTLDTRMNLEMAVTEEMLAIAVETKPHFCCLVPEKRQELTTTGGLDVAGQRDKMRDACKRLADAGIQVSLFIDADEEQIKAAAEVGAPFIEIHTGCYADAKTDAEQAQELARIAKAATFAASLGLKVNAGHGLTYHNVKAIAAIPEMHELNIGHAIIGRAVMTGLKDAVAEMKRLMLEARG", "note": "[I10L A19C V101L E104T]", "pyridoxine titer": "0.41 ± 0.019"}, {"variant": "MAELLLLVNIDHIATLRNARGTAYPDPVQAAFIAEQAGADGITVHLREDRRHITDRDVRILRQTLDTRMNLEMAVTEEMLAIAVETKPHFCCLVPEKRQEVTTEGGLDVAGQRDKMRDACKRLADAGIQVSLFIDADEEQIKAAAEVGAPFIEIITGCYADAKTDAEQAQELARIAKAATFAASLGLKVNAGHGLTYHNVKAIAAIPEMHELNIGHAIIGRAVMTGLKDAVAEMKRLMLEARG", "note": "[G7L H155I]", "pyridoxine titer": "0.72 ± 0.071"}]}]}
